Test results reported in the supplement of paper PMC11316812.
± gives the standard deviation of the averaged measurements.

How the values were obtained:
[1] = system: MCF7; assay: percentage of EdU-negative (G0-arrested) nuclei per well, 72 h; higher = more G0 arrest; conditions: reference: sequence is the full UniProt precursor, the tested protein was the secreted form or ectodomain
[2] = system: hTERT-HMEC; assay: as above; conditions: reference: sequence is the full UniProt precursor, the tested protein was the secreted form or ectodomain
[3] = protein concentration 0.0225 µM
[4] = protein concentration 0.0155 µM
[5] = protein concentration 0.0357143 µM
[6] = protein concentration 0.357143 µM
[7] = protein concentration 0.01075 µM
[8] = protein concentration 0.1075 µM
[9] = protein concentration 0.01025 µM
[10] = protein concentration 0.1025 µM
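Further: secreted proteins added to cultured cells, EdU pulse at the end, nuclei found by Hoechst imaging, EdU status from nuclear versus surrounding ring intensity ratio, PBS as neutral control.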

Sequence: MVPEEEPQDREKGLWWFQLKVWSMAVVSILLLSVCFTVSSVVPHNFMYSKTVKRLSKLREYQQYHPSLTCVMEGKDIEDWSCCPTPWTSFQSSCYFISTGMQSWTKSQKNCSVMGADLVVINTREEQDFIIQNLKRNSSYFLGLSDPGGRRHWQWVDQTPYNENVTFWHSGEPNNLDERCAIINFRSSEEWGWNDIHCHVPQKSICKMKKIYI [Q8WTT0]
- percentage of EdU-negative [1, 3]: 27.712 ± 0.0085%
- percentage of EdU-negative ([1]; protein concentration 0.225 µM): 26.5 ± 0.9%
- percentage of EdU-negative [2, 3]: 4.78 ± 0.84%
- percentage of EdU-negative ([2]; protein concentration 0.225 µM): 4.64 ± 1%

Sequence: MVPEVRVLSSLLGLALLWFPLDSHARARPDMFCLFHGKRYSPGESWHPYLEPQGLMYCLRCTCSEGAHVSCYRLHCPPVHCPQPVTEPQQCCPKCVEPHTPSGLRAPPKSCQHNGTMYQHGEIFSAHELFPSRLPNQCVLCSCTEGQIYCGLTTCPEPGCPAPLPLPDSCCQACKDEASEQSDEEDSVQSLHGVRHPQDPCSSDAGRKRGPGTPAPTGLSAPLSFIPRHFRPKGAGSTTVKIVLKEKHKKACVHGGKTYSHGEVWHPAFRAFGPLPCILCTCEDGRQDCQRVTCPTEYPCRHPEKVAGKCCKICPEDKADPGHSEISSTRCPKAPGRVLVHTSVSPSPDNLRRFALEHEASDLVEIYLWKLVKGIFHLTQIKKVRKQDFQKEAQHFRLLAGPHEGHWNVFLAQTLELKVTASPDKVTKT [Q6WN34]
- percentage of EdU-negative [1, 4]: 25.2 ± 1.1%
- percentage of EdU-negative ([1]; protein concentration 0.155 µM): 27.3 ± 1.6%
- percentage of EdU-negative [2, 4]: 5.6 ± 0.62%
- percentage of EdU-negative ([2]; protein concentration 0.155 µM): 7.92 ± 0.96%

Sequence: MVPKLFTSQICLLLLLGLLAVEGSLHVKPPQFTWAQWFETQHINMTSQQCTNAMQVINNYQRRCKNQNTFLLTTFANVVNVCGNPNMTCPSNKTRKNCHHSGSQVPLIHCNLTTPSPQNISNCRYAQTPANMFYIVACDNRDQRRDPPQYPVVPVHLDRII
- percentage of EdU-negative [1, 5]: 24.9 ± 1.8%
- percentage of EdU-negative [1, 6]: 27 ± 0.65%
- percentage of EdU-negative [2, 5]: 4.435 ± 0.01%
- percentage of EdU-negative [2, 6]: 5.25 ± 0.32%

Sequence: MVPKLFTSQICLLLLLGLMGVEGSLHARPPQFTRAQWFAIQHISLNPPRCTIAMRAINNYRWRCKNQNTFLRTTFANVVNVCGNQSIRCPHNRTLNNCHRSRFRVPLLHCDLINPGAQNISNCTYADRPGRRFYVVACDNRDPRDSPRYPVVPVHLDTTI
- percentage of EdU-negative ([1]; protein concentration 0.022 µM): 26.3 ± 2.1%
- percentage of EdU-negative ([1]; protein concentration 0.22 µM): 25.35 ± 0.13%
- percentage of EdU-negative ([2]; protein concentration 0.022 µM): 5.32 ± 0.8%
- percentage of EdU-negative ([2]; protein concentration 0.22 µM): 6.25 ± 2.1%

Sequence: MVPRIFAPAYVSVCLLLLCPREVIAPAGSEPWLCQPAPRCGDKIYNPLEQCCYNDAIVSLSETRQCGPPCTFWPCFELCCLDSFGLTNDFVVKLKVQGVNSQCHSSPISSKCESRRRFP [Q6UWQ7]
- percentage of EdU-negative [1, 7]: 24.7 ± 0.71%
- percentage of EdU-negative [1, 8]: 25.6 ± 1.1%
- percentage of EdU-negative [2, 7]: 5.54 ± 1.2%
- percentage of EdU-negative [2, 8]: 6.18 ± 1.3%

Sequence: MVPRISAAIFIFELLGSNSEGVTDLRLWLCQPAPRCGEWTYNPLEQCCDDGVILDLNQTRLCGSSCTFWPCFQHCCLESLGSQNQTVVRFKVPGMKPDCKSSPITRICAQEYHPKSPVSRSDLI [Q6B9Z1]
- percentage of EdU-negative [1, 3]: 24.3 ± 0.92%
- percentage of EdU-negative ([1]; protein concentration 0.225 µM): 24.9 ± 0.9%
- percentage of EdU-negative [2, 3]: 4.65 ± 1.1%
- percentage of EdU-negative ([2]; protein concentration 0.225 µM): 5.64 ± 0.86%

Sequence: MVRARHQPGGLCLLLLLLCQFMEDRSAQAGNCWLRQAKNGRCQVLYKTELSKEECCSTGRLSTSWTEEDVNDNTLFKWMIFNGGAPNCIPCKETCENVDCGPGKKCRMNKKNKPRCVCAPDCSNITWKGPVCGLDGKTYRNECALLKARCKEQPELEVQYQGRCKKTCRDVFCPGSSTCVVDQTNNAYCVTCNRICPEPASSEQYLCGNDGVTYSSACHLRKATCLLGRSIGLAYEGKCIKAKSCEDIQCTGGKKCLWDFKVGRGRCSLCDELCPDSKSDEPVCASDNATYASECAMKEAACSSGVLLEVKHSGSCNSISEDTEEEEEDEDQDYSFPISSILEW
- percentage of EdU-negative [1, 9]: 25.7 ± 1.4%
- percentage of EdU-negative [1, 10]: 26.2 ± 0.46%
- percentage of EdU-negative [2, 9]: 5.35 ± 0.64%
- percentage of EdU-negative [2, 10]: 6.11 ± 0.15%
